Data as given in PMC4227796.

How the values were obtained:
RecQL4_FL = target: T1, RecQL4_FL (Homo sapiens, UniProt O94761 1-1208); test: EMSA
T1 sequence: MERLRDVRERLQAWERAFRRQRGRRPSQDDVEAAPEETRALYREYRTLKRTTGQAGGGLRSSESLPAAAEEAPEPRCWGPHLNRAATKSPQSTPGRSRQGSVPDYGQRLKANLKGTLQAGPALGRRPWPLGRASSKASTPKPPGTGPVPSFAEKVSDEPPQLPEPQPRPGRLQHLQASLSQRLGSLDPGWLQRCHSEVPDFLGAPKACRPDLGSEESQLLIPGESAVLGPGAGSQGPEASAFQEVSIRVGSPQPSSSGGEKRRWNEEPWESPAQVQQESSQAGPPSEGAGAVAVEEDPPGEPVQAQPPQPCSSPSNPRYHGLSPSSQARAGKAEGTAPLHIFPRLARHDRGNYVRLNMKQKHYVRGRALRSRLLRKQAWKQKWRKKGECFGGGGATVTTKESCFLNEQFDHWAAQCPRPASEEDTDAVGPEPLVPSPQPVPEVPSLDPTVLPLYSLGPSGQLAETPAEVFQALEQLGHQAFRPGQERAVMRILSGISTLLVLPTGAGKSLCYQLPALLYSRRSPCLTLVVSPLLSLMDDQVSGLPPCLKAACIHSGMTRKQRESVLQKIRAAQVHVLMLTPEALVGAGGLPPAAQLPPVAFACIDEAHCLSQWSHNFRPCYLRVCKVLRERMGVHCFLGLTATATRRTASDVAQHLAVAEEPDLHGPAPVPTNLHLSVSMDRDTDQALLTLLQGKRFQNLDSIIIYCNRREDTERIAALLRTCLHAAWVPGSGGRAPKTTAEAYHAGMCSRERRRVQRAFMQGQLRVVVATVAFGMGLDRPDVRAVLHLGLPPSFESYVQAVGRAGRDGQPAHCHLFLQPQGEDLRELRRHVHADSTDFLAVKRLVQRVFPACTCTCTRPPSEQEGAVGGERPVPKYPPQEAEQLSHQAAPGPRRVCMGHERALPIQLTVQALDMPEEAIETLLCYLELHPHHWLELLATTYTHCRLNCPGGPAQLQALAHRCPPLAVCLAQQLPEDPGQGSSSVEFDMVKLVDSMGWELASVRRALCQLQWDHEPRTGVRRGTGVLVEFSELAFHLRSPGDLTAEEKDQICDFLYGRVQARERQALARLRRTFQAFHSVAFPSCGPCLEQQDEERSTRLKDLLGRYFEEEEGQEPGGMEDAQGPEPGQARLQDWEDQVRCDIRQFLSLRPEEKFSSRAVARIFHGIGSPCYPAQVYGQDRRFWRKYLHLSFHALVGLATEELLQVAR

RecQL4_N388 = target: T2, RecQL4_N388 (Homo sapiens, UniProt O94761 1-388); test: EMSA
T2 sequence: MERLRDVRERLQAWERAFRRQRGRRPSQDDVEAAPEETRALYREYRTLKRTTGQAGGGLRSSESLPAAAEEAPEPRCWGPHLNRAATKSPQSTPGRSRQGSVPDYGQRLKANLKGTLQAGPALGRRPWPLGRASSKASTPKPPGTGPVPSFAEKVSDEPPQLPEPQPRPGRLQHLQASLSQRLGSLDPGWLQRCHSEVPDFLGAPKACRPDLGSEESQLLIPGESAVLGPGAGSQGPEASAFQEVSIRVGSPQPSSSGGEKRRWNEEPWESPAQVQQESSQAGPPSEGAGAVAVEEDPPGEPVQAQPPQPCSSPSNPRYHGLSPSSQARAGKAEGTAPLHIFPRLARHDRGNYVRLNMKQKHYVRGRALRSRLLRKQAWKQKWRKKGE

Binder: GCAGAGGCCCGGCACGAGCTTCCCC (ssDNA) [LB2_GC]
- binding result (RecQL4_FL): binds
- binding result (RecQL4_N388): binds
